Measurements taken from paper PMC13082787, “A lipoprotein partner for the Escherichia coli outer membrane protein TolC” (eLife, 2026).
Values joined by “and” are separate entries in the source; they are usually repeats but may differ in a detail not shown here. Equal values may be shown once. Values belong to the binder of their own block, whether it stands above or below them.

What was measured:
[1] = target: T1, Detergent-purified FLAG-tagged TolC (E. coli, UniProt P02930 23-493); experiment: ITC; ITC200, 25°C; 230 µM N-terminally His-tagged soluble YbjP injected into 40 µM TolC; 20 mM HEPES pH 7.5, 200 mM NaCl, 0.03% DDM; single-site model; settings: both partners purified
T1 construct: also called TolC-FLAG; source: detergent-purified
T1 sequence (looked up): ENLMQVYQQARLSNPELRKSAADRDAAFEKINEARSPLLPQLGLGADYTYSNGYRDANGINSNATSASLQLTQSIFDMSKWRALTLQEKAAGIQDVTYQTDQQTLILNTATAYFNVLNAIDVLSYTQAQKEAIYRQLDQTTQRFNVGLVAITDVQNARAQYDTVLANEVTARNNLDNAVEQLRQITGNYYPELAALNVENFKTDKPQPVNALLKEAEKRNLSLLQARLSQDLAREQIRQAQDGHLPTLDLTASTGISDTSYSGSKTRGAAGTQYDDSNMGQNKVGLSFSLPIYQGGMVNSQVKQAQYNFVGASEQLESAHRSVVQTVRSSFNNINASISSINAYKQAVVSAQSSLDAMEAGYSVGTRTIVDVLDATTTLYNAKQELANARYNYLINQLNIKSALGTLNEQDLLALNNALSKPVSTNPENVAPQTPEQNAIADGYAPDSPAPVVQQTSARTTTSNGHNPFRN

[2] = target: T2, TolC-FLAG (DDM-purified full-length TolC with a C-terminal FLAG-tag) (E. coli, UniProt P02930 23-493); experiment: ITC; N-terminally His-tagged YbjPs at 230 µM injected into 40 µM TolC-FLAG in the cell; 25°C; 20 mM HEPES pH 7.5, 200 mM NaCl, 0.03% (wt/vol) DDM; single-site binding model; two independent measurements; settings: both partners purified
T2 construct: also called FLAG-tagged TolC; source: DDM-purified TolC-FLAG; not shown: FLAG, C-terminal, kept
T2 sequence (looked up): T1 sequence (looked up)

Kd [1]: ~4 µM
B1: Soluble YbjP (D28-R171) with an N-terminal His-tag (domain or fragment, E. coli, UniProt P75818 28-171, looked up)
chain: DNGTRSGPCVEGGPDNVAQQFYDYRILHRSNDITALRPYLSDKLATLLSDASRDNNHRELLTNDPFSSRTTLPDSAHVASASTIPNRDARNIPLRVDLKQGDQGWQDEVLMIQEGQCWVIDDVRYLGGSVHATAGTLRQSIENR
notes: also called YbjPs; YbjP_(28-171); not shown: His tag, N-terminal, kept

Kd [2]: 4.1 µM and 5.9 µM and 5 µM
stoichiometry N [2]: 0.64 and 0.42 and 0.53
B2: soluble YbjP (YbjPs), residues 28-171, N-terminally His-tagged (domain or fragment, E. coli, UniProt P75818 28-171, looked up)
chain: B1 chain
notes: also called YbjP_(28-171); YbjP soluble; source: E. coli BL21 (DE3), purified from the cytoplasm (HisTrap FF, dialysis); not shown: His-tag, N-terminal, kept
